From patent US20020019014A1, “Methods of identifying prosaposin receptor agonists and antagonists” (priority 1997, published 2002)
Entries after “also recorded” stand apart in the source; their conditions may differ. Like-named read-outs stand apart in the source and are kept apart here.

Legend:
prosaposin receptor [1] = conditions: cited from earlier work
prosaposin receptor [2] = conditions: cited from earlier work; remark: listed apart in the source
MAPK = test: MAP kinase (MAPK) phosphorylation assay; assay type: cell-based; conditions: after binding to the prosaposin receptor
Method: PC12 cells are grown to 85% confluence in DME high glucose media containing 10% FBS, 5% horse serum, 100 U/ml penicillin, 100 μg/ml streptomycin and 250 pg/ml fimgizone. Approximately 2×10^6 cells per 100 mm plate are placed in serum-free media for 24 hours prior to addition of compounds capable of binding to the prosaposin receptor. Positive controls are as described previously. Cells are stimulated with the compound of interest, then lysed on ice in 1 ml of 50 mM Tris-HCl, pH 8.0, 150 mM NaCl, 1 mM EGTA, pH 8.0, 100 mM NaF, pH 8.0, 10% glycerol, 1.5 mM MgCl2. 1% (v/v) Triton X-100, 1 mM sodium orthovanadate, 1 mM phenylmethylsulfonyl fluoride (PMSF), 10 μg/ml leupeptin, 20 μg/ml aprotinin. Unsolubilized materials are removed by ultracentrifugation at 12,000 x g at4° C.
Equal amounts of cell lysates are resolved by sodium dodecyl sulfate-polyacrylamide gel electrophoresis (SDS-PAGE) and transferred to a PVDF membrane (Millipore, Bedford, Mass.). Phosphorylated MAPK is identified using PhosphoPlus™ MAPK antibody and an alkaline phosphatase conjugated secondary antibody that emits light in the presence of a chemiluminescent substrate (New England Biolabs, Beverly, Mass.). […] Densitometric data are expressed as a ratio of MAPK-P absorbance units divided by MAPK-C absorbance units. […]

[3] = system: NS20Y neuroblastoma cells; conditions: as described in U.S. Pat. No. 5,571,787 and PCT/US94/08453; cited from earlier work
NS20Y cells = conditions: as described in U.S. Pat. No. 5,571,787 and PCT/US94/08453, cited from earlier work
[4] = system: Newborn mouse cerebellar explants; conditions: as described in U.S. Pat. No. 5,571,787 and PCT/US94/08453; cited from earlier work
several proteins = conditions: cited from earlier work

Row | Molecule | binding to receptor (prosaposin receptor [1]) | stimulation of receptor effector functions (prosaposin receptor [2]) | phosphorylation of MAPK (MAPK) | neurite outgrowth [3] | prevention of neural cell death (NS20Y cells) | prevention of neural cell death (NS20Y cells; listed as Prosaposin) | stimulation of myelination [4] | incorporation of 32P into several proteins (several proteins)
1 | saposin A: saposin from prosaposin; inactive compound that binds the receptor without stimulating effector functions (protein, UniProt P07602 60-142, looked up, Saposin-A) Saposin-A: SLPCDICKDVVTAAGDMLKDNATEEEILVYLEKTCDWLPKPNMSASCKEIVDSYLPVILDIIKGEMSRPGEVCSALNLCESLQ | binds to the receptor | without stimulating any of its effector functions | – | – | – | – | – | –
2 | prosaposin: 70 kilodalton glycoprotein, precursor of saposins A, B, C and D (protein, UniProt P07602 17-524, looked up, pro-form, 70 kilodalton glycoprotein, precursor of saposins A, B, C and D) pro-form: GPVLGLKECTRGSAVWCQNVKTASDCGAVKHCLQTVWNKPTVKSLPCDICKDVVTAAGDMLKDNATEEEILVYLEKTCDWLPKPNMSASCKEIVDSYLPVILDIIKGEMSRPGEVCSALNLCESLQKHLAELNHQKQLESNKIPELDMTEVVAPFMANIPLLLYPQDGPRSKPQPKDNGDVCQDCIQMVTDIQTAVRTNSTFVQALVEHVKEECDRLGPGMADICKNYISQYSEIAIQMMMHMQPKEICALVGFCDEVKEMPMQTLVPAKVASKNVIPALELVEPIKKHEVPAKSDVYCEVCEFLVKEVTKLIDNNKTEKEILDAFDKMCSKLPKSLSEECQEVVDTYGSSILSILLEEVSPELVCSMLHLCSGTRLPALTVHVTQPKDGGFCEVCKKLVGYLDRNLEKNSTKQEILAALEKGCSFLPDPYQKQCDQFVAEYEPVLIEILVEVMDPSFVCLKIGACPSAHKPLLGTEKCIWGPSYWCQNTETAAQCNAVEHCKRHVWN | binds to a cell surface receptor | – | stimulate phosphorylation of MAPK | induce neurite outgrowth | prevent neural cell death | prevent neuronal cell death | stimulate myelination | stimulates incorporation of ^32P into several proteins
3 | saposin C: heat-stable glycoprotein generated by proteolytic processing of prosaposin (protein, UniProt P07602 311-390, looked up, Saposin-C) Saposin-C: SDVYCEVCEFLVKEVTKLIDNNKTEKEILDAFDKMCSKLPKSLSEECQEVVDTYGSSILSILLEEVSPELVCSMLHLCSG | – | – | stimulate phosphorylation of MAPK | induce neurite outgrowth | prevent neuronal cell death; also recorded: prevent neural cell death | – | stimulate myelination | –
